The target of the assay is SA58 (BD55-5840), human IgG1 (human). Description: SPR. For orientation: SPR reads the build-up and loss of mass on a sensor chip optically.

What is called Kd is the concentration at which binding is half-saturated. A lower Kd goes with tighter binding.

In the case of “SARS-CoV-2 (BA.4/BA.5) Spike RBD Protein (His Tag) (from UniProt P0DTC2) (domain or fragment)”, the Kd worked out at 0.96 nM.

Source of the values: publication PMC9712074.
